Data: US20090149339A1 (published 2009)
Ends that are not written are not given here. * marks the point of attachment. Biotin = O=C1N[C@H]2[C@H](CS[C@H]2CCCCC(=O)*)N1

B1: KV1.3 C-terminal PL peptide AA33L, biotinylated (peptide)
peptide: Biotin-TTNNNPNSAVNIKKIFTDV
B2: CD166 (CD6L) C-terminal PL peptide AA20L, biotinylated (peptide)
peptide: Biotin-DLGNMEENKKLEENNHKTEA
B3: DOCK2 C-terminal PL peptide AA40L, biotinylated (peptide)
peptide: Biotin-LASKSAEEGKQIPDSLSTDL

Columns and labels:
[1] = target: T1, GST-TAX2 PDZ domain fusion protein (human tax interaction protein 2 AA54-140; PDZ domain 1 of 1) (human, UniProt P08515 1-218 = GST); assay: A/G assays
T1 construct: also called TX 2

[2] = target: T2, GST-CBP PDZ domain fusion protein (Cytohesin binding protein HE AA85-175; PDZ domain 1 of 1) (UniProt P08515 1-218 = GST); assay: A/G assays
T2 construct: also called Prot

[3] = target: GST-MINT3 PDZ domain fusion protein (human MINT3 AA11-52; PDZ domain 1 of 1) (human, UniProt P08515 1-218 = GST); assay: A/G assays
[4] = target: T3, GST-TAX43 PDZ domain fusion protein (human tax interaction protein 43 AA15-85; PDZ domain 1 of 1) (human, UniProt P08515 1-218 = GST); assay: A/G assays
T3 construct: also called TX 43

[5] = target: T4, GST-KIAA0559 PDZ domain fusion protein (KIAA0559 AA766-870; PDZ1 of 1) (UniProt P08515 1-218 = GST); assay: A/G assays
T4 construct: also called K559

[6] = target: T5, GST-MPP2 PDZ domain fusion protein (maguk p55 subfamily member 2 (DLG2) AA185-273; PDZ domain 1 of 1) (UniProt P08515 1-218 = GST); assay: A/G assays
T5 construct: also called MMP2

[7] = target: GST-LIMK2 PDZ domain fusion protein (human LIM domain kinase 2 AA185-275; PDZ domain 1 of 1) (human, UniProt P08515 1-218 = GST); assay: A/G assays
[8] = target: GST-MPP1 PDZ domain fusion protein (55 Kd erythrocyte membrane protein AA101-186; PDZ domain 1 of 1) (UniProt P08515 1-218 = GST); assay: A/G assays
[9] = target: GST-NOS1 PDZ domain fusion protein (human neuronal nitric oxide synthase; PDZ domain 1 of 1) (human, UniProt P08515 1-218 = GST); assay: A/G assays
[10] = target: T6, GST-KIAA0303 PDZ domain fusion protein (KIAA0303 AA652-742; PDZ domain 1 of 1) (UniProt P08515 1-218 = GST); assay: A/G assays
T6 construct: also called K303

[11] = target: GST-AF6 PDZ domain fusion protein (af-6 protein AA985-1077; PDZ domain 1 of 1) (UniProt P08515 1-218 = GST); assay: A/G assays
[12] = target: GST-TIAM1 PDZ domain fusion protein (T-lymphoma invasion and metastasis inducing protein 1 AA1001-1088); PDZ 1 … (UniProt P08515 1-218 = GST); assay: A/G assays
[13] = target: T7, GST-SYN1a PDZ domain fusion protein (alpha1-syntrophin AA96-189; PDZ domain 1 of 1) (UniProt P08515 1-218 = GST); assay: A/G assays
T7 construct: also called SYN 1 alpha; SYNTR 1 alpha

[14] = target: T8, GST-TAX40 PDZ domain fusion protein (human tax interaction protein 40 AA35-137; PDZ domain 1 of 1) (human, UniProt P08515 1-218 = GST); assay: A/G assays
T8 construct: also called TX 40

[15] = target: T9, GST-CASK PDZ domain fusion protein (CASK AA495-584; PDZ domain 1 of 1) (mouse, UniProt P08515 1-218 = GST); assay: A/G assays
T9 construct: also called mCASK

[16] = target: GST-PTN-4 PDZ domain fusion protein (protein-tyrosine phosphatase meg1 AA774-862; PDZ domain 1 of 1) (UniProt P08515 1-218 = GST); assay: A/G assays
[17] = target: GST-LIM PDZ domain fusion protein (Human LIM protein AA29-112; PDZ domain 1 of 1) (human, UniProt P08515 1-218 = GST); assay: A/G assays
[18] = target: T10, GST-TAX33 PDZ domain fusion protein (tax interaction protein 33 AA73-162; PDZ domain 1 of 1) (UniProt P08515 1-218 = GST); assay: A/G assays
T10 construct: also called TX33

[19] = target: GST-prIL16 PDZ domain fusion protein (putative interleukin 16 precursor AA170-383; PDZ domains 1-2 of 2) (UniProt P08515 1-218 = GST); assay: A/G assays
[20] = target: T11, GST-KIAA0316 PDZ domain fusion protein (KIAA0316 AA197-284; PDZ domain 1 of 1) (UniProt P08515 1-218 = GST); assay: A/G assays
T11 construct: also called K316

[21] = target: T12, GST-RGS12 PDZ domain fusion protein (human regulator of G-protein signalling 12 AA35-103; PDZ domain 1 of 1) (human, UniProt P08515 1-218 = GST); assay: A assay
T12 construct: also called RSG12

[22] = target: T13, GST-41.8 kD PDZ domain fusion protein (hypothetical 41.8 kD protein AA4-85; PDZ domain 1 of 1) (UniProt P08515 1-218 = GST); assay: A assay
T13 construct: also called hypoth

[23] = target: T14, GST-DVL1 PDZ domain fusion protein (human dishevelled segment polarity protein homolog AA248-340); PDZ domain … (human, UniProt P08515 1-218 = GST); assay: A assay
[24] = target: T15, GST-NeDLG PDZ domain fusion protein (presynaptic protein sao102, neuroendocrine-dlg; PDZ domains 1-2 of 3) (UniProt P08515 1-218 = GST); assay: A and G assays
T15 construct: also called NeDLG1

[25] = target: T16, GST-PSD95 PDZ domain fusion protein (human post-synaptic density protein 95 AA387-724; PDZ domains 1-3 of 3) (human, UniProt P08515 1-218 = GST); assay: A and G assays
[26] = target: T12, GST-RGS12 PDZ domain fusion protein …; assay: A/G assays
[27] = target: T15, GST-NeDLG PDZ domain fusion protein …; assay: A/G assays
[28] = target: T16, GST-PSD95 PDZ domain fusion protein …; assay: A/G assays
[29] = target: T14, GST-DVL1 PDZ domain fusion protein …; assay: A/G assays
[30] = target: T13, GST-41.8 kD PDZ domain fusion protein …; assay: A/G assays
[31] = target: T13, GST-41.8 kD PDZ domain fusion protein …; assay: A/G assays; remark: listed apart in the source
[32] = target: T15, GST-NeDLG PDZ domain fusion protein …; assay: G assay
[33] = target: T7, GST-SYN1a PDZ domain fusion protein …; assay: G assay

T16 sequence (P08515 1-218, tags or fused parts left off): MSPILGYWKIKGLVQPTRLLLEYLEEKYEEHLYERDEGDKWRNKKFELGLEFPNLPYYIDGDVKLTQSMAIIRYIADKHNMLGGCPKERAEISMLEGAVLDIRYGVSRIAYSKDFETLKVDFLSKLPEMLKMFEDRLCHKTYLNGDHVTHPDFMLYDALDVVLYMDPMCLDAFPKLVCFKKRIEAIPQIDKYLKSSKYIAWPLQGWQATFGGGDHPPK
GST-MPP1 PDZ domain fusion protein (55 Kd erythrocyte membrane protein AA101-186; PDZ domain 1 of 1), sequence (P08515 1-218, tags or fused parts left off): as above
T10 sequence (P08515 1-218, tags or fused parts left off): as above
T2 sequence (P08515 1-218, tags or fused parts left off): as above
T12 sequence (P08515 1-218, tags or fused parts left off): as above
T6 sequence (P08515 1-218, tags or fused parts left off): as above
T9 sequence (P08515 1-218, tags or fused parts left off): as above
GST-LIM PDZ domain fusion protein (Human LIM protein AA29-112; PDZ domain 1 of 1), sequence (P08515 1-218, tags or fused parts left off): as above
GST-NOS1 PDZ domain fusion protein (human neuronal nitric oxide synthase; PDZ domain 1 of 1), sequence (P08515 1-218, tags or fused parts left off): as above
GST-AF6 PDZ domain fusion protein (af-6 protein AA985-1077; PDZ domain 1 of 1), sequence (P08515 1-218, tags or fused parts left off): as above
GST-PTN-4 PDZ domain fusion protein (protein-tyrosine phosphatase meg1 AA774-862; PDZ domain 1 of 1), sequence (P08515 1-218, tags or fused parts left off): as above
T8 sequence (P08515 1-218, tags or fused parts left off): as above
T5 sequence (P08515 1-218, tags or fused parts left off): as above
GST-prIL16 PDZ domain fusion protein (putative interleukin 16 precursor AA170-383; PDZ domains 1-2 of 2), sequence (P08515 1-218, tags or fused parts left off): as above
T3 sequence (P08515 1-218, tags or fused parts left off): as above
GST-MINT3 PDZ domain fusion protein (human MINT3 AA11-52; PDZ domain 1 of 1), sequence (P08515 1-218, tags or fused parts left off): as above
GST-TIAM1 PDZ domain fusion protein (T-lymphoma invasion and metastasis inducing protein 1 AA1001-1088); PDZ 1 …, sequence (P08515 1-218, tags or fused parts left off): as above
T14 sequence (P08515 1-218, tags or fused parts left off): as above
GST-LIMK2 PDZ domain fusion protein (human LIM domain kinase 2 AA185-275; PDZ domain 1 of 1), sequence (P08515 1-218, tags or fused parts left off): as above
T1 sequence (P08515 1-218, tags or fused parts left off): as above
T15 sequence (P08515 1-218, tags or fused parts left off): as above

Row | Binder | binding result [1] | binding result [2] | binding result [3] | binding result [4] | binding result [5] | binding result [6] | binding result [7] | binding result [8] | binding result [9] | binding result [10] | binding result [11] | binding result [12] | binding result [13] | binding result [14] | binding result [15] | binding result [16] | binding result [17] | binding result [18] | binding result [19] | binding result [20] | other results
1 | B1 | no binding | no binding | no binding | no binding | no binding | no binding | no binding | no binding | no binding | no binding | no binding | no binding | no binding | no binding | no binding | no binding | no binding | no binding | no binding | no binding | binding result [21]: binds; binding result [22]: binds; binding result [23]: binds; binding result [24]: binds; binding result [25]: binds
2 | B2 | no binding | no binding | no binding | no binding | no binding | no binding | no binding | no binding | no binding | no binding | no binding | no binding | no binding | no binding | no binding | no binding | no binding | no binding | no binding | no binding | binding result [26]: no binding; binding result [27]: no binding; binding result [28]: no binding; binding result [29]: no binding; binding result [30]: no binding
3 | B3 | no binding | no binding | no binding | no binding | no binding | no binding | no binding | no binding | no binding | no binding | no binding | no binding | – | no binding | no binding | no binding | no binding | no binding | no binding | no binding | binding result [26]: no binding; binding result [31]: no binding; binding result [29]: no binding; binding result [32]: binds; binding result [33]: binds; binding result [25]: binds
